Molecular target: the molecule itself
Test: cryo-EM structure; single-particle analysis of purified AtSLAC1 S59A in 25 mM HEPES pH 7.4, 150 mM NaCl, 0.03% digitonin; final refinement with C3 symmetry; 2.7 Å

B1: Arabidopsis thaliana slow anion channel 1 (AtSLAC1) S59A mutant (natural protein, UniProt Q9LD83 1-556, looked up)
chain: MERKQSNAHSTFADINEVEDEAEQELQQQENNNNKRFSGNRGPNRGKQRPFRGFSRQVALETGFSVLNRESRERDDKKSLPRSGRSFGGFESGGIINGGDGRKTDFSMFRTKSTLSKQKSLLPSIIRERDIENSLRTEDGETKDDSINENVSAGRYFAALRGPELDEVKDNEDILLPKEEQWPFLLRFPIGCFGICLGLSSQAVLWLALAKSPATNFLHITPLINLVVWLFSLVVLVSVSFTYILKCIFYFEAVKREYFHPVRVNFFFAPWVVCMFLAISVPPMFSPNRKYLHPAIWCVFMGPYFFLELKIYGQWLSGGKRRLCKVANPSSHLSVVGNFVGAILASKVGWDEVAKFLWAVGFAHYLVVFVTLYQRLPTSEALPKELHPVYSMFIAAPSAASIAWNTIYGQFDGCSRTCFFIALFLYISLVARINFFTGFKFSVAWWSYTFPMTTASVATIKYAEAVPGYPSRALALTLSFISTAMVCVLFVSTLLHAFVWQTLFPNDLAIAITKRKLTREKKPFKRAYDLKRWTKQALAKKISAEKDFEAEEESHH
modifications: S146 and S543 identified as phosphorylated by mass spectrometry of the purified S59A mutant
notes: Slow anion channel 1 (SLAC1), Arabidopsis thaliana, full length, 556 residues; codon-optimised synthetic DNA; residues 150-517 modelled in the structure; No step that removes the tags is described; not shown: Flag, N-terminal, kept
For B1, the “stoichiometry N” value was 3.

Source: paper PMC9076830, “Structure of the Arabidopsis guard cell anion channel SLAC1 suggests activation mechanism by phosphorylation” (Nature Communications, 2022)
